# B1: DNA endonuclease SAE2 (Saccharomyces cerevisiae), P46946 (parent)
# chain: MVTGEENVYLKSSLSILKELSLDELLNVQYDVTTLIAKRVQALQNRNKCVLEEPNSKLAEILCHEKNAPQQSSQTSAGPGEQDSEDFILTQFDEDIKKESAEVHYRNENKHTVQLPLVTMPPNRHKRKISEFSSPLNGLNNLSDLEDCSDTVIHEKDNDKENKTRKLLGIELENPESTSPNLYKNVKDNFLFDFNTNPLTKRAWILEDFRPNEDIAPVKRGRRKLERFYAQVGKPEDSKHRSLSVVIESQNSDYEFAFDNLRNRSKSPPGFGRLDFPSTQEGNEDKKKSQEIIRRKTKYRFLMASNNKIPPYEREYVFKREQLNQIVDDGCFFWSDKLLQIYARC
# partner: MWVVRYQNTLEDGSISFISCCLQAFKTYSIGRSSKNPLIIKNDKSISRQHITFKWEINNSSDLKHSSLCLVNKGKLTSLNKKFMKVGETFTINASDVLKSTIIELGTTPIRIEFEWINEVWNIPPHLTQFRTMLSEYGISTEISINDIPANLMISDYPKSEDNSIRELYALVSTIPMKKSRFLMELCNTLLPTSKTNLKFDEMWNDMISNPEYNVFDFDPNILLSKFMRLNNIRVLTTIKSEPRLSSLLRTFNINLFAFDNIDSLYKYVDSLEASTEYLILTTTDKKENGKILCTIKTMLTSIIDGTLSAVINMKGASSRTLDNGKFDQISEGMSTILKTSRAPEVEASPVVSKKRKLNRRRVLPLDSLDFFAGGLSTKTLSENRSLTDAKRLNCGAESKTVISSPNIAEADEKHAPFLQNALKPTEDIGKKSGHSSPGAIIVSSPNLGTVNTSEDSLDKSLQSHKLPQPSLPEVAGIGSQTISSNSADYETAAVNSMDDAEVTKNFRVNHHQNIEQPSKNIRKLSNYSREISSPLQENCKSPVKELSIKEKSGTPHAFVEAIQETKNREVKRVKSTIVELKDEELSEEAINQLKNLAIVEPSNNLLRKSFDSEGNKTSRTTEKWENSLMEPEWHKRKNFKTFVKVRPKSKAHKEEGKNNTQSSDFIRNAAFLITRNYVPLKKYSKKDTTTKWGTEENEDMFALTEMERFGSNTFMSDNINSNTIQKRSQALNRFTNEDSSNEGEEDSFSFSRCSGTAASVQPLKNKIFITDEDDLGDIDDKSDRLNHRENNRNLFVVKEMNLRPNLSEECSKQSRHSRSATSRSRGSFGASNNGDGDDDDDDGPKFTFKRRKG
# Variants of: B1
# Conditions: with xrs2_yeast XRS2, P33301
row,Variant,effect of a mutation on the interaction
1,MVTGEENVYLKSSLSILKELSLDELLNVQYDVTTLIAKRVQALQNRNKCVLEEPNSKLAEILCHEKNAPQQSSQTSAGPGEQDSEDFILTQFDEDIKKESAEVHYRNENKHTVQLPLVTMPPNRHKRKISEFSSPLNGLNNLSDLEDCSDTVIHEKDNDKENKTRKLLGIELENPESTSPNLYKNVKDNFLFDFNTNPLTKRAWILEDFRPNEDIAPVKRGRRKLERFYAQVGKPEDSKHRSLSVVIESQNSDYEFAFDNLRNRSKSPPGFGRLDFAAAQEGNEDKKKSQEIIRRKTKYRFLMASNNKIPPYEREYVFKREQLNQIVDDGCFFWSDKLLQIYARC [P277A;S278A;T279A],decreasing interaction strength
2,MVTGEENVYLKSSLSILKELSLDELLNVQYDVTTLIAKRVQALQNRNKCVLEEPNSKLAEILCHEKNAPQQSSQTSAGPGEQDSEDFILTQFDEDIKKESAEVHYRNENKHTVQLPLVTMPPNRHKRKISEFSSPLNGLNNLSDLEDCSDTVIHEKDNDKENKTRKLLGIELENPESTSPNLYKNVKDNFLFDFNTNPLTKRAWILEDFRPNEDIAPVKRGRRKLERFYAQVGKPEDSKHRSLSVVIESQNSDYEFAFDNLRNRSKAAPGFGRLDFPSTQEGNEDKKKSQEIIRRKTKYRFLMASNNKIPPYEREYVFKREQLNQIVDDGCFFWSDKLLQIYARC [S267A;P268A],disrupting interaction strength
3,MVTGEENVYLKSSLSILKELSLDELLNVQYDVTTLIAKRVQALQNRNKCVLEEPNSKLAEILCHEKNAPQQSSQTSAGPGEQDSEDFILTQFDEDIKKESAEVHYRNENKHTVQLPLVTMPPNRHKRKISEFSSPLNGLNNLSDLEDCSDTVIHEKDNDKENKTRKLLGIELENPESTSPNLYKNVKDNFLFDFNTNPLTKRAWILEDFRPNEDIAPVKRGRRKLERFYAQVGKPEDSKHRSLSVVIESQNSDYEFAFDNLRNRSKSPPDFGRLDFPSTQEGNEDKKKSQEIIRRKTKYRFLMASNNKIPPYEREYVFKREQLNQIVDDGCFFWSDKLLQIYARC [G270D],decreasing interaction strength

# Source: IntAct's records for PubMed 25231868
